Reference: patent US7488592 (WASHINGTON UNIVERSITY, dated 2009)
Where a chain is given by its changes, count along the chain named.

Legend:
FLAG-Erf2(C189S)p = biological target: T1, FLAG-Erf2(C189S)p (yeast (S. cerevisiae), UniProt Q06551 1-359); assay: co-purification on GSH-agarose from yeast extracts, immunoblot (FIG. 6B)
T1 construct: Loss-of-function mutant in the DHHC domain, expressed in yeast
T1 sequence: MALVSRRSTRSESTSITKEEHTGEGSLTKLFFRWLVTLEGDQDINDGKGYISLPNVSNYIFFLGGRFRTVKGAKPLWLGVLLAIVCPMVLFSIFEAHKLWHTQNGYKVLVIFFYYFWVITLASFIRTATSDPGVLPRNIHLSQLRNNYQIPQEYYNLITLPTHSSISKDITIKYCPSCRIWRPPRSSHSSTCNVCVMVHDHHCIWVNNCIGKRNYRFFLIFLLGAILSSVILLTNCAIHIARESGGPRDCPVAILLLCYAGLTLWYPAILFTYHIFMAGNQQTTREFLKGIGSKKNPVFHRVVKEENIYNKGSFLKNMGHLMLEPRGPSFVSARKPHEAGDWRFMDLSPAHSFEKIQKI
Procedure: (§1) Expression of FLAG-Erf2p was determined by affinity purification on anti-FLAG antibody linked to agarose beads followed by an anti-FLAG immunoblot (bottom panel). (FIG. 6C) The Ras PAT activity of partially purified extracts of ERF2 and ERF4 wild type and mutant strains was assayed as described in Example 1.
(§2) Purification of Erf2p/Erf4p Complex—RJY543 yeast cells expressing GST-Erf4p along with FLAG-Erf2p or FLAG-Erf2p mutants (Erf2(H201A)_p, Erf2(C189S)p, Erf2(C203S) p) were solubilized in Y-PER® reagent as described above. *E. coli* cells expressing GST-Erf4p along with FLAG-Erf2p or FLAG-Erf2p mutants (Erf2(H201A)p, Erf2(C203S)p) were lysed by high pressure (25,000 p.s.i.) homogenization (Avestin) in 50 mM Tris-HCl, pH 7.4, 150 mM NaCl, 1 mM DTT, 1 mM EDTA, and 0.13 mM phenylmethylsulfonyl fluoride (Buffer A). […]
(§3) Immunoblotting—Proteins bound to the GSH-agarose beads were analyzed for the presence of both GST and FLAG peptide fusion proteins. GST fusion proteins were detected by immunoblotting with rabbit anti-GST (Molecular Probes) antibody and peroxidase-conjugated goat anti-rabbit secondary antibody (Sigma). FLAG-tagged proteins were detected on Western blots by probing with anti-FLAG® M5 monoclonal antibody (Sigma) and peroxidase-conjugated sheep anti-mouse secondary antibody (Amersham Biosciences).

FLAG-Erf2p = biological target: T2, FLAG-Erf2p (yeast (S. cerevisiae), UniProt Q06551 1-359); assay: co-purification on GSH-agarose from yeast extracts, anti-FLAG immunoblot
T2 construct: Expressed in yeast RJY543 (pESC) or in E. coli XL1 Blue (pFLAG-MAC operon fusion); also called FLAG-tagged Erf2p; yeast Erf2
T2 sequence: T1 sequence with S189C
Procedure: as §1, §2, §3

binding result (FLAG-Erf2(C189S)p): no binding
binding result (FLAG-Erf2p): binds
B1: GST-Erf4p (other)
chain: MCDSHQKEEDNANTSERALFFNYHEFSYSFYEDLGSEDAKPTEHDEDHKLCITHFPNVYAARGSAEFQVTRVVRVPRRFDESRSSLETPQFSTQLPGSEPAAIVGDDGTSFVRCGRYDIGDHVFGCSSVSPLSEYLSAAELAEVVHRVNGFLLREEGEVFGWRNLSGLLLDMLTGGLWSWVLGPLLSRPVFQESLALEQYVAQLNSPGGLLHERGVRLVLPRRSGCLSLDFVVPRPK
notes: also called yeast Erf4; YOL110W; not shown: glutathione S-transferase (GST) moiety fused in frame to the N-terminus; vector pEG(KG) in yeast, pFLAG-MAC operon fusio
